In the supplement of paper PMC10567573:

B1: PRAME (parent)
chain: KKLKIFAMPMQDIKMILKMVQLDS
B2: C1orf137 (parent)
chain: LPQETNLTLKVCKPQAPQKLDPTL

Variants of: B1
Assay: protein stability index of a GFP-peptide fusion (GPS, HEK-293T) (PSI 1-6); higher = more stable
Conditions: c terminus: a fixed tail appended
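Note: lentivirally expressed fusions sorted by FACS into six bins by GFP to DsRed ratio, PSI derived from sequencing read proportions per bin multiplied by bin number.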

| Variant | protein stability index |
| --- | --- |
| KKLKIFAMPMQDIKMILKMVTLDS [Q21T] | 3.42 |
| KKLKIFAMPMQDIKMILKMVKLDS [Q21K] | 3.17 |
| KKLKIFAMPMQDIKMILKMVELDS [Q21E] | 2.03 |
| KKLKIFAMPMQDIKMILKMVGLDS [Q21G] | 3.64 |
| KKLKIFAMPMQDIKMILKMVMLDS [Q21M] | 2.33 |
| KKLKIFAMPMQDIKMILKMVPLDS [Q21P] | 3.91 |
| KKLKIFAMPMQDIKMILKMVILDS [Q21I] | 2.69 |
| KKLKIFAMPMQDIKMILKMVNLDS [Q21N] | 2.82 |
| KKLKIFAMPMQDIKMILKMVCLDS [Q21C] | 3.19 |
| KKLKIFAMPMQDIKMILKMVWLDS [Q21W] | 1.98 |
| KKLKIFAMPMQDIKMILKMVALDS [Q21A] | 3.36 |
| KKLKIFAMPMQDIKMILKMVQCDS [L22C] | 1.88 |
| KKLKIFAMPMQDIKMILKMVQQDS [L22Q] | 2.51 |
| KKLKIFAMPMQDIKMILKMVQHDS [L22H] | 3.28 |
| KKLKIFAMPMQDIKMILKMVQPDS [L22P] | 3.45 |
| KKLKIFAMPMQDIKMILKMVQYDS [L22Y] | 2.57 |
| KKLKIFAMPMQDIKMILKMVQIDS [L22I] | 3.88 |
| KKLKIFAMPMQDIKMILKMVQMDS [L22M] | 1.42 |
| KKLKIFAMPMQDIKMILKMVQRDS [L22R] | 2.83 |
| KKLKIFAMPMQDIKMILKMVQVDS [L22V] | 3.63 |
| KKLKIFAMPMQDIKMILKMVQKDS [L22K] | 1.95 |

| Variant | protein stability index |
| --- | --- |
| KKLKIFAMPMQDIKMILKMVQADS [L22A] | 1.13 |
| KKLKIFAMPMQDIKMILKMVQDDS [L22D] | 4.71 |
| KKLKIFAMPMQDIKMILKMVQLDT [S24T] | 2.39 |
| KKLKIFAMPMQDIKMILKMVQLDK [S24K] | 2.42 |
| KKLKIFAMPMQDIKMILKMVQLDN [S24N] | 2.87 |
| KKLKIFAMPMQDIKMILKMVQLDI [S24I] | 2.49 |
| KKLKIFAMPMQDIKMILKMVQLDV [S24V] | 2.5 |
| KKLKIFAMPMQDIKMILKMVQLDH [S24H] | 2.91 |
| KKLKIFAMPMQDIKMILKMVQLDD [S24D] | 4.26 |
| KKLKIFAMPMQDIKMILKMVQLDR [S24R] | 3.56 |
| KKLKIFAMPMQDIKMILKMVQLDP [S24P] | 1.9 |
| KKLKIFAMPMQDIKMILKMVQLDQ [S24Q] | 2.02 |
| KKLKIFAMPMQDIKMILKMVQLDA [S24A] | 3.45 |
| KKLKIFAMPMQDIKMILKMVQLDF [S24F] | 2.85 |
| KKLKIFAMPMQDIKMILKMVQLDM [S24M] | 3.73 |
| KKLKIFAMPMQDIKMILKMVQLDE [S24E] | 4.07 |
| KKLKIFAMPMQDIKMILKMVQLDG [S24G] | 2.47 |
| KKLKIFAMPMQDIKMILKMVQLES [D23E] | 3.61 |
| KKLKIFAMPMQDIKMILKMVQLFS [D23F] | 3.54 |
| KKLKIFAMPMQDIKMILKMVQLIS [D23I] | 2.33 |
| KKLKIFAMPMQDIKMILKMVQLNS [D23N] | 2.18 |

| Variant | protein stability index |
| --- | --- |
| KKLKIFAMPMQDIKMILKMVQLPS [D23P] | 3.05 |
| KKLKIFAMPMQDIKMILKMVQLWS [D23W] | 2.58 |
| KKLKIFAMPMQDIKMILKMVQLMS [D23M] | 1.94 |
| KKLKIFAMPMQDIKMILKMVQLTS [D23T] | 2.86 |
| KKLKIFAMPMQDIKMILKMVQLLS [D23L] | 3.12 |
| KKLKIFAMPMQDIKMILKMVQLSS [D23S] | 3.79 |
| KKLKIFAMPMQDIKMILKMVQLKS [D23K] | 2.4 |
| KKLKIFAMPMQDIKMILKMEQLDS [V20E] | 2.33 |
| KKLKIFAMPMQDIKMILKMFQLDS [V20F] | 2.98 |
| KKLKIFAMPMQDIKMILKMQQLDS [V20Q] | 2.9 |
| KKLKIFAMPMQDIKMILKMTQLDS [V20T] | 3.9 |
| KKLKIFAMPMQDIKMILKMCQLDS [V20C] | 2.55 |
| KKLKIFAMPMQDIKMILKMSQLDS [V20S] | 2.01 |
| KKLKIFAMPMQDIKMILKMNQLDS [V20N] | 2.32 |
| KKLKIFAMPMQDIKMILKMKQLDS [V20K] | 4.07 |
| KKLKIFAMPMQDIKMILKMIQLDS [V20I] | 4.22 |
| KKLKIFAMPMQDIKMILKMYQLDS [V20Y] | 2.21 |
| KKLKIFAMPMQDIKMILKMHQLDS [V20H] | 3.51 |
| KKLKIFAMPMQDIKMILKMRQLDS [V20R] | 2.37 |
| KKLKIFAMPMQDIKMILKMDQLDS [V20D] | 2.19 |
| KKLKIFAMPMQDIKMILKMPQLDS [V20P] | 2.22 |

Variants of: B2
Assay: as above
Conditions: c terminus: a fixed tail appended

| Variant | protein stability index |
| --- | --- |
| LPQETNLTLKVCKPQAPQKLDSTL [P22S] | 2.87 |
| LPQETNLTLKVCKPQAPQKLDDTL [P22D] | 4.38 |
| EPQETNLTLKVCKPQAPQKLDPTL [L1E] | 4.8 |
| IPQETNLTLKVCKPQAPQKLDPTL [L1I] | 3.97 |
| KPQETNLTLKVCKPQAPQKLDPTL [L1K] | 3.93 |
| VPQETNLTLKVCKPQAPQKLDPTL [L1V] | 4.34 |
| APQETNLTLKVCKPQAPQKLDPTL [L1A] | 4.06 |
| TPQETNLTLKVCKPQAPQKLDPTL [L1T] | 4.44 |
| YPQETNLTLKVCKPQAPQKLDPTL [L1Y] | 3.04 |
| LNQETNLTLKVCKPQAPQKLDPTL [P2N] | 3.46 |
| LIQETNLTLKVCKPQAPQKLDPTL [P2I] | 3.49 |
| LQQETNLTLKVCKPQAPQKLDPTL [P2Q] | 3.76 |
| LRQETNLTLKVCKPQAPQKLDPTL [P2R] | 2.88 |
| LWQETNLTLKVCKPQAPQKLDPTL [P2W] | 2.16 |
| LTQETNLTLKVCKPQAPQKLDPTL [P2T] | 3.92 |
| LMQETNLTLKVCKPQAPQKLDPTL [P2M] | 2.23 |

| Variant | protein stability index |
| --- | --- |
| LPQETNLTLKVCKPQAMQKLDPTL [P17M] | 3.68 |
| LPQETNLTLKVCKPQAVQKLDPTL [P17V] | 3.95 |
| LPQETNLTLKVCKPQARQKLDPTL [P17R] | 3.17 |
| LPQETNLTLKVCKPQAEQKLDPTL [P17E] | 4.27 |
| LPQETNLTLKVCKPQAPQCLDPTL [K19C] | 2.92 |
| LPQETNLTLKVCKPQAPQELDPTL [K19E] | 3.77 |
| LPQETNLTLKVCKPQAPQTLDPTL [K19T] | 4.06 |
| LPQETNLTLKVCKPQAPQDLDPTL [K19D] | 3.92 |
| LPQETNLTLKVCKPQAPQQLDPTL [K19Q] | 3.85 |
| LPQETNLTLKVCKPQAPQGLDPTL [K19G] | 3.5 |
| LPQETNLTLKVCKQQAPQKLDPTL [P14Q] | 4.41 |
| LPQETNLTLKVCKCQAPQKLDPTL [P14C] | 3.02 |
| LPQETNLTLKVCKWQAPQKLDPTL [P14W] | 3.47 |
| LPQETNLTLKVCKHQAPQKLDPTL [P14H] | 4.07 |
| LPQETNLTLKVCKYQAPQKLDPTL [P14Y] | 3.37 |
